Measured values published in US20210388087A1 (Chugai, published 2021).
Where a chain is given by its changes, count along the chain named. In names and notes the source's numbering stands. Each block holds one binder with its values, some of them ahead of it.

Columns and labels:
Human CD3eg linker = molecular target: T1, Human CD3eg linker (human); test: affinity relative to template H183/L072, single-mutation scan
T1 construct: Single chain: CD3 epsilon and gamma subunits joined by a 29-mer linker, Flag-tag at the C-terminus; also called recombinant human CD3
T1 chain: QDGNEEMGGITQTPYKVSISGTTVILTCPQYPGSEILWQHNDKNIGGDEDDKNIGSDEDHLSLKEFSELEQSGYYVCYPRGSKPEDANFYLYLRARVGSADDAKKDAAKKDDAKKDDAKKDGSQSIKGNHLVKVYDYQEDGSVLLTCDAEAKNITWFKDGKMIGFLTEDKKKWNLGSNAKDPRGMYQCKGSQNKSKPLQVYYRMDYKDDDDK

[1] = molecular target: T2, biotin-labeled human CD137 fused to human IgG1 Fc fragment (human, biotin-labeled); test: competitive ELISA on biotin-human CD137-Fc; free Fc 62.5 pmol (control)
T2 construct: also called human CD137-Fc; biotin-human CD137-Fc; not shown: human IgG1 Fc fragment

cyno CD137 = molecular target: T3, cyno CD137 (cynomolgus monkey, UniProt Q07011 24-186 (human entry), limits assumed); test: SPR Biacore T200, IgG captured on protein A, 25 C;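 note: antigens diluted in ACES running buffer at pH 7.4 were flowed over antibodies held on a CM3 chip bearing amine-coupled protein A, with buffer alone serving as blank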
T3 construct: also called cynomolgus monkey CD137
T3 chain: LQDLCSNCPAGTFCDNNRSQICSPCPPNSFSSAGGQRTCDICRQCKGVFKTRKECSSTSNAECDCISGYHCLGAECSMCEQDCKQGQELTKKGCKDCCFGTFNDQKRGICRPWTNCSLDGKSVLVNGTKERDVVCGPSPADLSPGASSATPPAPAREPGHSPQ

human CD137 = human CD137 (human, UniProt Q07011 24-186); test: SPR Biacore T200, IgG captured on protein A, 25 C;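 note: antigens diluted in ACES running buffer at pH 7.4 were flowed over antibodies held on a CM3 chip bearing amine-coupled protein A, with buffer alone serving as blank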
human CD3 ed = human CD3 ed (human, UniProt P07766 23-126; P04234 22-105, limits assumed); test: SPR Biacore T200, IgG captured on protein A, 25 C;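 note: antigens diluted in ACES running buffer at pH 7.4 were flowed over antibodies held on a CM3 chip bearing amine-coupled protein A, with buffer alone serving as blank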
[2] = molecular target: T2, biotin-labeled human CD137 fused to …; test: competitive ELISA on biotin-human CD137-Fc; free CD3e vs free Fc
[3] = molecular target: T2, biotin-labeled human CD137 fused to …; test: competitive ELISA on biotin-human CD137-Fc; competitor free CD3e 62.5 pmol

B1: H183/L072 with S93Y (Kabat) in VL dBBDu072L (antibody, name in Kabat numbering, V domains shown)
VH: QVQLVESGGGLVQPGRSLRLSCAASGFTFSNAWMHWVRQAPGKGLEWVAQIKDKGNAYAAYYAPSVKGRFTISRDDSKNSIYLQMNSLKTEDTAVYYCHYVHYASASTVLPAFGVDAWGQGTTVTVSS
VL: DIVMTQSPLSLPVTPGEPASISCQASQELVHMNRNTYLHWYQQKPGQAPRLLIYKVSNRFPGVPDRFSGSGSGTDFTLKISRVEAEDVGVYYCAQGTYVPFTFGQGTKLEIK
notes: Single-mutation variant of H183L072
fold change of affinity for CD3 (Human CD3eg linker): 0.7 fold

B2: dBBDu186/L098 (antibody, V domains shown)
VH: B1 VH with K54R, G55S, A57Q, A60T, S105Q
VL: B1 VL with Q24A, Q27E, M32I, N35Y, T36I, Y37F, P61I, T97S, Y98Q
notes: IgG format; constant regions not specified
ELISA signal [1]: 115000 | Kd (cyno CD137): 134 µM | koff (cyno CD137): 0.00119 s⁻¹ | Kd (human CD137): 2.31 µM | koff (human CD137): 0.000534 s⁻¹ | kon (human CD137): 231 M⁻¹ s⁻¹ | Kd (human CD3 ed): 1.88 µM | koff (human CD3 ed): 0.0209 s⁻¹ | kon (human CD3 ed): 11100 M⁻¹ s⁻¹ | Signal decrease [2]: 86.2% | ELISA signal [3]: 15900

B6: H183/L072 with T97Y (Kabat) in VL dBBDu072L (antibody, name in Kabat numbering, V domains shown)
VH: B1 VH
VL: B1 VL with Y98S, T102Y
notes: as for B1
fold change of affinity for CD3 (Human CD3eg linker): 0.2 fold

B7: H183/L072 with V94Y (Kabat) in VL dBBDu072L (antibody, name in Kabat numbering, V domains shown)
VH: B1 VH
VL: B1 VL with Y98S, V99Y
notes: as for B1
fold change of affinity for CD3 (Human CD3eg linker): 0.2 fold

Next, values leading:

ELISA signal [1]: 141000 | Kd (cyno CD137): 6.92 µM | koff (cyno CD137): 0.0748 s⁻¹ | kon (cyno CD137): 10800 M⁻¹ s⁻¹ | Kd (human CD137): 8.43 µM | koff (human CD137): 0.0102 s⁻¹ | kon (human CD137): 1210 M⁻¹ s⁻¹ | Kd (human CD3 ed): 0.349 µM | koff (human CD3 ed): 0.021 s⁻¹ | kon (human CD3 ed): 60200 M⁻¹ s⁻¹ | Signal decrease [2]: 96.9% | ELISA signal [3]: 4370
B3: dBBDu167/L094 (antibody, V domains shown)
VH: B1 VH with A57L, S107G, T108G, V109G, A112G
VL: B1 VL with Q24Y, Q27E, V30L, M32I, N35H, T36I, S57Y, P61N, T97S, Y98S
notes: IgG format; constant regions not specified; also called dBBDu_167 dBBDu.L094

ELISA signal [1]: 88100 | Kd (cyno CD137): 35.7 µM | koff (cyno CD137): 0.00122 s⁻¹ | Kd (human CD137): 2.71 µM | koff (human CD137): 0.000402 s⁻¹ | kon (human CD137): 148 M⁻¹ s⁻¹ | Kd (human CD3 ed): 2.06 µM | koff (human CD3 ed): 0.0258 s⁻¹ | kon (human CD3 ed): 12500 M⁻¹ s⁻¹ | Signal decrease [2]: 76.9% | ELISA signal [3]: 20400
B4: dBBDu189/L119 (antibody, V domains shown)
VH: B1 VH with V48I, K54R, G55S, A57Q, A60T, S105Q, T108S, V109L, A112S
VL: B1 VL with Q24T, M32I, N35F, T36I, Y37F, P61I, T97S, Y98Q
notes: as for B2

ELISA signal [1]: 102000 | Kd (cyno CD137): 70.4 µM | koff (cyno CD137): 0.00208 s⁻¹ | Kd (human CD137): 1.91 µM | koff (human CD137): 0.000746 s⁻¹ | kon (human CD137): 391 M⁻¹ s⁻¹ | Kd (human CD3 ed): 3.36 µM | koff (human CD3 ed): 0.0546 s⁻¹ | kon (human CD3 ed): 16200 M⁻¹ s⁻¹ | Signal decrease [2]: 13% | ELISA signal [3]: 88900
B5: dBBDu186/L100 (antibody, V domains shown)
VH: B1 VH with K54R, G55S, A57Q, A60T, S105Q
VL: DIVMTQSPLSLPVTPGEPASISCSASEELVHINRYIFLHWYQQKPGQAPRLLIYKVYNRFMGVPDRFSGSGSGTDFTLKISRVEAEDVGVYYCGQGSSVPFTFGQGTKLEIK
notes: as for B2

ELISA signal [1]: 83600 | Kd (cyno CD137): 16.1 µM | koff (cyno CD137): 0.00361 s⁻¹ | kon (cyno CD137): 225 M⁻¹ s⁻¹ | Kd (human CD137): 2.41 µM | koff (human CD137): 0.00081 s⁻¹ | kon (human CD137): 335 M⁻¹ s⁻¹ | Kd (human CD3 ed): 3.01 µM | koff (human CD3 ed): 0.0408 s⁻¹ | kon (human CD3 ed): 13600 M⁻¹ s⁻¹ | Signal decrease [2]: 39.2% | ELISA signal [3]: 50800
B8: dBBDu186/L108 (antibody, V domains shown)
VH: B1 VH with K54R, G55S, A57Q, A60T, S105Q
VL: B5 VL with S24R, A25T, V30L, Y35F, I36T, Y57S, G94A, S98A
notes: as for B2

ELISA signal [1]: 9860 | Kd (cyno CD137): 61.3 µM | koff (cyno CD137): 0.00126 s⁻¹ | Kd (human CD137): 3.44 µM | koff (human CD137): 0.000447 s⁻¹ | kon (human CD137): 130 M⁻¹ s⁻¹ | Kd (human CD3 ed): 3.09 µM | koff (human CD3 ed): 0.0318 s⁻¹ | kon (human CD3 ed): 10300 M⁻¹ s⁻¹ | Signal decrease [2]: 68.7% | ELISA signal [3]: 3090
B9: dBBDu186/L106 (antibody, V domains shown)
VH: B1 VH with K54R, G55S, A57Q, A60T, S105Q
VL: B5 VL with A25T, V30L, Y35F, Y57A, G94A, S98Q
notes: as for B2
